Experimental data: publication PMC2532732

Assays:
Assay in all cases: EMSA
p53 DBD = p53 DBD (UniProt P04637 94-312)
p63 DBD = biological target: T1, p63 DBD (UniProt Q9H3D4 154-365)
T1 sequence: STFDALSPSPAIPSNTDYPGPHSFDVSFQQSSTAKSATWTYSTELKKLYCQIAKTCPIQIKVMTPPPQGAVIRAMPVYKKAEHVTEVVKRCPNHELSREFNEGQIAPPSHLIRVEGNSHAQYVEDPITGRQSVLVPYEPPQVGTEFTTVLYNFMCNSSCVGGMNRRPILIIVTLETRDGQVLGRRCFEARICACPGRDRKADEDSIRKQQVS

p73 DBD = biological target: T2, p73 DBD (UniProt O15350 104-333)
T2 sequence: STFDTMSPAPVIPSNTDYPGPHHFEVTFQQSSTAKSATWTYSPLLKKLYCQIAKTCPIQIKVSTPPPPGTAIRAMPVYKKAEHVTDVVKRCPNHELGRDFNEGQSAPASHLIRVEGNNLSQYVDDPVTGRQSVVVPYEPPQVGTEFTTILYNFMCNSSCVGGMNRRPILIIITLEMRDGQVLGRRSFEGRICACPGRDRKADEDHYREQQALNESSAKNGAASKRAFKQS

Measured: binding result

p53 DBD, sequence (P04637 94-312): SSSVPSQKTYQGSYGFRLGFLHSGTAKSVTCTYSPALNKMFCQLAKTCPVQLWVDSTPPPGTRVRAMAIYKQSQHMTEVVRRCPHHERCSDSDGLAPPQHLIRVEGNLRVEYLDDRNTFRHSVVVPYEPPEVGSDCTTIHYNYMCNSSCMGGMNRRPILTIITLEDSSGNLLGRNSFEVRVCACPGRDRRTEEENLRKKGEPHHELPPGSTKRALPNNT

B1: PUMA promoter 30-mer (dsDNA)
DNA 1: CGCGCCTGCAAGTCCTGACTTGTCCGCGGC
DNA 2: GCCGCGGACAAGTCAGGACTTGCAGGCGCG
binds: p53 DBD | p63 DBD | p73 DBD

B2: Bax promoter 30-mer (dsDNA)
DNA 1: GGGCTCACAAGTTAGAGACAAGCCTGGGCG
DNA 2: CGCCCAGGCTTGTCTCTAACTTGTGAGCCC
binds: p53 DBD | p63 DBD | p73 DBD
